Experimental findings from patent US20050142137A1 (CURAGEN, published 2005) are described below.

Assay [1] deals with T1, SLPI of human tumour cell lines (endogenous; on cells or in conditioned media) (human, UniProt P03973 26-132). Nature of the assay: cell-based or functional assay.
Assay [2] concerns the target T2, recombinant human SLPI (Secretory leukocyte protease inhibitor), R&D Systems Cat#260-PI (human, UniProt P03973 25-131, biotinylated in the streptavidin-plate ELISAs and on SRBCs).
T2 construct: Bought protein; also called biotinylated SLPI; B-Cur12
Nature of the assay: limiting antigen ELISA, biotinylated SLPI coated at 50 ng/ml. The method, then: (§1) The limiting antigen analysis is a method that affinity ranks the antigen-specific antibodies in B cell culture supernatants. […] Each plate was washed 5 times with dH₂O, before 46 μl/well of 1% milk in PBS with 0.05% sodium azide was added, followed by 4 μl/well of B cell supernatant. After 22 hours at RT on a shaker, the plates were again washed 5 times with dH₂O. Goat anti-Human (Fc)-HRP at 1 μg/ml, 50 μl/well was added. After 1 hour at RT, the plates were again washed 5 times with dH₂O and 50 μl/well of TMB substrate was added. The reaction was stopped by the addition of 50 μl of 1M phosphoric acid to each well and the plates were read at wavelength 450 nm. 42C1, 43H7, 35F1 and 9G12 were chosen for further evaluation and cloning.

In assay [3] the target is T2, recombinant human SLPI (Secretory …). Nature of the assay: limiting antigen ELISA, biotinylated SLPI coated at 100 ng/ml. The method, then: as §1
For orientation: An ELISA detects its analyte on a solid surface through an enzyme-linked reagent.

The target is the same in assay [4]. Description: ELISA, recombinant antibody in HEK 293 supernatant titrated 1:2 on biotinylated human SLPI. From the text:
After isolation of single plasma cells, mRNA was extracted and reverse transcriptase PCR was used to generate cDNA. The cDNA encoding the variable heavy and light chains was specifically amplified using polymerase chain reaction. The variable heavy chain region was cloned into an IgG2 expression vector, generated by cloning the constant domain of human IgG2 into the multiple cloning site of pcDNA3.1+/Hygro (Invitrogen, Burlington, ON). The variable light chain region was cloned into an IgK expression vector, generated by cloning the constant domain of human IgK into the multiple cloning site of pcDNA3.1+/Neo (Invitrogen, Burlington, ON). The heavy chain and the light chain expression vectors were then co-lipofected into a 60 mm dish of 70% confluent human embryonic kidney 293 (HEK 293) cells and the transfected cells were incubated for 24 hours to secrete recombinant antibody. Supernatant (3 mL) was harvested from the HEK 293 cells and the secretion of intact antibody and binding to SLPI tested ELISA. To detection secretion, 96 well plates were coated with 2 μg/mL of goat anti-human IgG H+L overnight. For detection of SLPI binders, streptavidin plates were coated with biotinylated human SLPI (0.5 μg/mL) overnight at four degrees. The plates were washed five times with dH₂O. Recombinant antibodies titrated 1:2 for 7 wells from the undiluted minilipofection supernatant were added, incubated and the plates were washed five times with dH₂O. Goat anti-human IgG Fc-specific HRP-conjugated antibody was added at a final concentration of 1 μg/mL, incubated for 1 hour at RT and the plates were washed as before. Plates were developed with the addition of TMB for 30 minutes and the reaction was stopped by the addition of 1 M phosphoric acid. Each ELISA plate was analyzed to determine the optical density of each well at 450 nm.

Assay [5] deals with T1, SLPI of human tumour cell lines …. Nature of the assay: flow cytometry, 42C1 at 170 nM on OVCAR-4 cells. The method, then: (§2) FACS analysis of anti-SLPI antibody binding to OVCAR4, OVCAR-5, OVCAR-8, SK-OV-3, A2780, SF294, 786-0 cell lines was done as follows. Suspended cells were washed twice with ice-cold FACS buffer (SOURCE) and incubated with antibody 42C1 (170 nM/FACS buffer) for 1 hr then washed. Cells were incubated with a 1:500 dilution in FACS buffer of […] donkey anti-human IgG (H+L) (Jackson Immunolabs) for 30 minutes. Cells were washed and then fixed with 1% formaldehyde in PBS. Analysis was done using a FACS Calibur™ flow cytometer (Becton Dickinson, Frankin Lakes, N.J.).
(§3) 42C1 antibody bound SLPI on SLPI expressing ovarian cancer cell lines: OVCAR-4 (Geo Mean Ratio 37), OVCAR-5 (Geo Mean Ratio 10), and OVCAR-8 (Geo Mean Ratio 35) as compared to SLPI negative cell line 786-0 (Geo Mean Ratio 3).
(In general: In flow cytometry, cells or beads pass a laser one at a time.)

Assay [6] shares this target. Description: flow cytometry, 42C1 at 170 nM on OVCAR-5 cells. The method, then:
as §2, §3

Assay [7] shares this target. Nature of the assay: flow cytometry, 42C1 at 170 nM on OVCAR-8 cells. As to the method: as §2, §3

T1 sequence (P03973 26-132 limits assumed): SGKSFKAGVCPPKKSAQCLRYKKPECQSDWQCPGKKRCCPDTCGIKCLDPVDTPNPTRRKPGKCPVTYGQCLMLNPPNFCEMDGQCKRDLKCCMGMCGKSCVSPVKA
T2 sequence (P03973 25-131): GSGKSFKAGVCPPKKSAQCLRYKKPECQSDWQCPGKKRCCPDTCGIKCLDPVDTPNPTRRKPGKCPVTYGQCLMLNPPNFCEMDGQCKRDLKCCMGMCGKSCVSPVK

B1: 35F1 (antibody, human IgG2, V domains shown)
VH: QVQLQESGPGLVKPSQTLSLTCTVSGGSIKSGDYYWSWVRQLPGKGLEWIGYIYYSGSTYYNPSLKSRVTISIDTSKNQFSLKLSSVTAADTAVYYCAREGSYYDSGGFDYWGQGTLVTVSS
VL: not shown
notes: Fully human, XenoMouse XMG2; also called #50; Cur12.1 PL35 F1
As for B1, the “IC50 of growth inhibition of IGROV-1 cells, clonogenic assay” value in assay [1] was determined as 163 nM. Further, the “IC50 of growth inhibition of SW480 cells, clonogenic assay” value in assay [1] was 85 nM. Moreover, the OD amounted to 0.17 OD450 in assay [2] and 0.2 OD450 in assay [3]. For the same molecule, the “Binding to SLPI (titre of supernatant)” value in assay [4] is over 64 reciprocal dilution.

B2: 42C1 (antibody, human IgG2, V domains shown)
VH: QVQLQESGPGLVKPSQTLSLTCTVSGVSISSGGYYWSWIRQHPGKGLEWIGYIYYSGSTYYNPSLKSRVTISVDTSKNQFSLKLSSVTAADTAVFYCAREGEYYDEGGFDYWGQGTLVTVSS
VL: not shown
notes: Fully human, XenoMouse XMG2; also called #24; Cur12.1 PL42 C1
Turning to B2, the “IC50 of growth inhibition of IGROV-1 cells, clonogenic assay” value in assay [1] was found to be 121 nM. Also, in assay [1], the “IC50 of growth inhibition of SW480 cells, clonogenic assay” value amounted to 85 nM. In addition, the “Geo Mean Ratio” value in assay [5] was 37; in assay [6], 10; in assay [7], 35. Besides, the OD in assay [2] came to 3.01 OD450; in assay [3], 3.42 OD450. Further, the “Binding to SLPI (titre of supernatant)” value in assay [4] was over 64 reciprocal dilution.

B3: 43H7 (antibody, human IgG2, V domains shown)
VH: QVQLVESGGGVVQPGRSLRLSCAASGFTFSTYGMHWVRQAPGKGLEWVTFIWYDGRNKYYADSVKGRFTVSRDNSKNTLYLQMNSLRAEDTAVYYCARGDDYGDYHPHYYYYGLDVWGQGTTVTVSS
VL: DIVMTQTPLSLSVTPGQPASISCKSSQSLLDSDGKTYLYWYLQKPGQPPQLLIYEVSNRFSGVPDRFSGSGSGTDFTLKISRVEAEDVAYYYCMQSIQLPWTFGQGTKVEIK
notes: Fully human, XenoMouse XMG2; also called #11; Cur12.1 PL43 H7
As for B3, the values for the OD in assay [2] and in assay [3] were 1.19 OD450 and 2.6 OD450, respectively. Besides, the “Binding to SLPI (titre of supernatant)” value in assay [4] was over 64 reciprocal dilution.

B4: 9G12 (antibody, human IgG2, V domains shown)
VH: QVQLVESGGGVVQPGRSLRLSCAASGFTFSGYGMHWVRQAPGKGLEWVAFIWYNGNDNYYTDSVKGRFTISRDNSKNTLYLQMNSLRAEDTAVYYCARGDDYGDYHPHYYYYGMDVWGQGTTVTVSS
VL: DIVMTQTPLSLSVTPGQPASISCKSSQSLLDSDGKTYLYWYLQKPGQPPQLLIYEVSNRFSGVPDRFSGSGSGTDFTLKISRVEAEDIGVYYCLQSIQLPWTFGQGTKVEIK
notes: Fully human, XenoMouse XMG2; also called #36; Cur12.1 PL09 G12
As to B4, the figures for the OD in assay [2] and in assay [3] were 0.6 OD450 and 0.98 OD450, respectively. The “Binding to SLPI (titre of supernatant)” value in assay [4] was over 64 reciprocal dilution.
